In article PMC11446229:

Molecular target: T1, CyaY, the frataxin homolog of Escherichia coli (E. coli), P27838
T1 chain: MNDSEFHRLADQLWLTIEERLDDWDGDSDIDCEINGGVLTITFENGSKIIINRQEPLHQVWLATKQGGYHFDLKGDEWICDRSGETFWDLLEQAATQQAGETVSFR
Assay: native MS; CyaY above 35 uM in the titration of SufSE; charge states of CyaY multimers (Fig. S4)
Settings: remark: other sources report otherwise

B1: CyaY, the frataxin homolog of Escherichia coli, P27838 1-106 (natural protein)
chain: T1 chain
For B1, the stoichiometry N was 2 to 3.
